IntAct's records for PubMed 12074588

Target: nck1_human NCK1 (UniProt P16333)

Substance | effect of a mutation on the interaction
BDNF/NT-3 growth factors receptor (Rattus norvegicus (Rat)), Q63604 K571F | disrupting interaction strength
BDNF/NT-3 growth factors receptor (Rattus norvegicus (Rat)), Q63604 Y705F | disrupting interaction strength
BDNF/NT-3 growth factors receptor (Rattus norvegicus (Rat)), Q63604 Y706F | disrupting interaction strength
BDNF/NT-3 growth factors receptor (Rattus norvegicus (Rat)), Q63604 Y816F | with no effect

Other lines, results leading:

effect of a mutation on the interaction | Substance
with no effect | BDNF/NT-3 growth factors receptor (Rattus norvegicus (Rat)), Q63604 Y515F
with no effect | BDNF/NT-3 growth factors receptor (Rattus norvegicus (Rat)), Q63604 Y701F
with no effect | BDNF/NT-3 growth factors receptor (Rattus norvegicus (Rat)), Q63604 Y726F
disrupting interaction strength | BDNF/NT-3 growth factors receptor (Rattus norvegicus (Rat)), Q63604 Y782F
